Laboratory results published in PMC10622425.

Molecular target: M2 protein of human Influenza A virus A/WSN/33 (H1N1), wild type (Influenza A virus A/WSN/33 (H1N1))
Experiment: co-IP

B1: human DHHC20 fused at its C-terminus to a myc-tag (enzyme)
chain: TLWRCCQRVVGWVPVLFITFVVVWSYYAYVVELCVFTIFGNEENGKTVVYLVAFHLFFVMFVWSYWMTIFTSPASPSKEFYLSNSEKERYEKEFSQERQQEILRRAARALPIYTTSASKTIRYCEKCQLIKPDRAHHCSACDSCILKMDHHCPWVNNCVGFSNYKFFLLFLLYSLLYCLFVAATVLEYFIKFWTNELTDTRAKFHVLFLFFVSAMFFISVLSLFSYHCWLVGKNRTTIESFRAPTFSYGPDGNGFSLGCSKNWRQVFGDEKKYWLLPIFSSLGDGCSFPTRLVGM
For B1, the percent of total DHHC20-myc co-precipitated was 1%.
